Experimental data as given in publication PMC10303109.
pKd: −log10 of the molar value.

Molecular target: SARS-CoV-2 spike RBD wild type (SARS-CoV-2 (Wuhan strain)) (UniProt P0DTC2)
Experiment: filter binding

Sequence | pKd (11 Nap-dU (5-[N-(1-naphthylmethyl)carboxamide]-2'-deoxyuridine) in place of dT) | pKd (11 Nap-dU in place of dT)
TATCGAGCGTCCTGCCTTTGCGGAGGUGAACCUUACGUUCAACUGGAUCGUGUGUAGGUACACCGACAGCCACCCAGAAA [AM032-0] | 9.11 | 
CTGUCGGUAAGGGAGCUAGUGUAUGCCCCUGAGUUGGGGAUAUCACCGACAG [AM047-0] |  | 10.70
